One data set has as its target FoxO1 (UniProt G3V7R4). The data set is described as follows: C/EBP-β IP, FoxO1 immunoblot. As to conditions: reference: C/EBP-β-WT; sites T299. A general note: Immunoblotting shows a protein as a band on a membrane.
The target in the next data set is C/EBP-β (UniProt P21272). The data set is described as follows: co-immunoprecipitation from cardiomyocytes. As to conditions: reference: FoxO1(S209A); sites S215,S218,T228,S232,S243.
Another data set deals with FoxO1-WT (mouse, UniProt Q9R1E0 1-652). The data set is described as follows: pull-down; without Mst1; EMSA: 20 mM Tris-HCl pH 8.0, 40 mM KCl, 5% glycerol, 0.4 mM DTT, 0.2 mM EDTA, 2 mM MgCl2, 1 mg/ml BSA, 20 ng poly(dI-dC), on ice 15 min, 50 ng protein; pull-down (1x buffer): 10 mM HEPES pH 8, 50 mM KCl, 2.5 mM MgCl2, 1 mM EDTA, 1 mM DTT, 0.1% IGEPAL, 4 C 2 h. Particulars: protein: recombinant; tags: GST removed by PreScission (general method); label: 5' biotin on sense strand; blunt. On the technique in general: In EMSA bound probe runs differently from free probe, usually more slowly.
Sequence of FoxO1-WT (Q9R1E0 whole entry): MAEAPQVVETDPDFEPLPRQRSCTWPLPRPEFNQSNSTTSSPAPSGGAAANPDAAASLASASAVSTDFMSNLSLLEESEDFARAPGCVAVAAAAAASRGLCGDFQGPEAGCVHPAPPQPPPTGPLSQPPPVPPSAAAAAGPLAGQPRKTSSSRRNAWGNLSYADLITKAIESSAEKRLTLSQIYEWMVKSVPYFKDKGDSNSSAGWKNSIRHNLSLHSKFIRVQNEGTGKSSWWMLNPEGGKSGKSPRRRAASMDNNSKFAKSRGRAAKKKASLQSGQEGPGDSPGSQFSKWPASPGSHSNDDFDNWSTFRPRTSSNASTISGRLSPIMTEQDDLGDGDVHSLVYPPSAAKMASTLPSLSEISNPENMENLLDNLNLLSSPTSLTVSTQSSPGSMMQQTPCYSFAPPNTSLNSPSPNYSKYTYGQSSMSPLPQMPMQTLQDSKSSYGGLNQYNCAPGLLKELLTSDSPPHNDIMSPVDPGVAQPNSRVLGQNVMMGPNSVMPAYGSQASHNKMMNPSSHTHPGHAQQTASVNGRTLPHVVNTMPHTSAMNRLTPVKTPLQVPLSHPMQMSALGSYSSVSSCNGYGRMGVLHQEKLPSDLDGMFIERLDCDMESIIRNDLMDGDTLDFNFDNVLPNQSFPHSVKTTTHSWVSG

Turning to “C/EBP-β (from UniProt P17676) C/EBP-β-PR (T299A)”, the “binding against the reference” value with FoxO1 is recorded as “weaker”. Turning to “FoxO1 (from UniProt Q9R1E0) FoxO1-PR (six sites to Ala)”, the “binding against the reference” value with C/EBP-β is “lost”.

B1: WT-3xDBE (Biotin-FHRE-wild type) (dsDNA)
DNA 1: CCTTGTTTACGGGTTGTTTACGGGTTGTTTACCC
DNA 2: GGGTAAACAACCCGTAAACAACCCGTAAACAAGG
For the molecule B1, the binding result with FoxO1-WT is “binds”.

B2: Mt-3xDBE (Biotin-FHRE-mutant) (dsDNA)
DNA 1: ACTTACCCACGAGTTACCCACGAGTTACCCACCA
DNA 2: TGGTGGGTAACTCGTGGGTAACTCGTGGGTAAGT
Take B2: the binding result with FoxO1-WT is reported as “no binding”.

(Values after paper PMC11282193, “Mst1-mediated phosphorylation of FoxO1 and C/EBP-β stimulates cell-protective mechanisms in cardiomyocytes”.)
